According to paper doi:10.1101/2025.04.14.648762, “P-Rex1 Limits the Agonist-Induced Internalisation of GPCRs Independently of its Rac-GEF Activity” (bioRxiv, 2025):

Experiments:
Assay in all cases: pull-down; 5 pmol P-Rex1 or P-Rex2 protein (2.5 pmol for P-Rex1 mutants) with 5 pmol GST or GST-Grk2 in 20 µl detergent-free buffer (50 mM Hepes pH 7.2, 150 mM NaCl), 1 h on ice; isolated on magnetic glutathione agarose; beads washed in buffer with 1% NP-40; western blot
Conditions in all cases: both partners purified
His-P-Rex2 (wild type) = molecular target: T1, His-P-Rex2 (wild type) (human, UniProt Q70Z35 1-1606)
T1 construct: P-Rex2, human, wild type, subcloned into pENTR3C and recombined with pDEST10; also called wild type His-P-Rex2; source: baculovirus-infected Sf9 cells, purified (Ni-NTA agarose, desalting); not shown: His6, N-terminal, kept

[1] = molecular target: T2, GEF-dead His-P-Rex2 (P-Rex2^E30A,N212A) (human, UniProt Q70Z35 1-1606, E30A | N212A)
T2 construct: P-Rex2, human, with alanine mutations at Glu30 and Asn212 in the catalytic DH domain; also called GEF-dead P-Rex2; source: baculovirus-infected Sf9 cells, purified (Ni-NTA agarose, desalting); not shown: His6, N-terminal, kept

[2] = molecular target: T3, EE-P-Rex1 (purified recombinant wild type) (human, UniProt Q8TCU6 1-1659)
T3 construct: P-Rex1, human, wild type recombinant protein; also called wild type EE-P-Rex1; source: baculovirus-infected Sf9 cells, purified using the EE tag

GEF-dead EE-P-Rex1 = molecular target: T4, GEF-dead EE-P-Rex1 (human, UniProt Q8TCU6 1-1659, E56A | N238A)
T4 construct: P-Rex1, human, with point mutations E56A and N238A in the DH domain; also called GEF-dead P-Rex1; P-Rex1 E56A N238A; source: baculovirus-infected Sf9 cells, purified using the EE tag

Measured: binding result

T3 sequence (Q8TCU6 whole entry): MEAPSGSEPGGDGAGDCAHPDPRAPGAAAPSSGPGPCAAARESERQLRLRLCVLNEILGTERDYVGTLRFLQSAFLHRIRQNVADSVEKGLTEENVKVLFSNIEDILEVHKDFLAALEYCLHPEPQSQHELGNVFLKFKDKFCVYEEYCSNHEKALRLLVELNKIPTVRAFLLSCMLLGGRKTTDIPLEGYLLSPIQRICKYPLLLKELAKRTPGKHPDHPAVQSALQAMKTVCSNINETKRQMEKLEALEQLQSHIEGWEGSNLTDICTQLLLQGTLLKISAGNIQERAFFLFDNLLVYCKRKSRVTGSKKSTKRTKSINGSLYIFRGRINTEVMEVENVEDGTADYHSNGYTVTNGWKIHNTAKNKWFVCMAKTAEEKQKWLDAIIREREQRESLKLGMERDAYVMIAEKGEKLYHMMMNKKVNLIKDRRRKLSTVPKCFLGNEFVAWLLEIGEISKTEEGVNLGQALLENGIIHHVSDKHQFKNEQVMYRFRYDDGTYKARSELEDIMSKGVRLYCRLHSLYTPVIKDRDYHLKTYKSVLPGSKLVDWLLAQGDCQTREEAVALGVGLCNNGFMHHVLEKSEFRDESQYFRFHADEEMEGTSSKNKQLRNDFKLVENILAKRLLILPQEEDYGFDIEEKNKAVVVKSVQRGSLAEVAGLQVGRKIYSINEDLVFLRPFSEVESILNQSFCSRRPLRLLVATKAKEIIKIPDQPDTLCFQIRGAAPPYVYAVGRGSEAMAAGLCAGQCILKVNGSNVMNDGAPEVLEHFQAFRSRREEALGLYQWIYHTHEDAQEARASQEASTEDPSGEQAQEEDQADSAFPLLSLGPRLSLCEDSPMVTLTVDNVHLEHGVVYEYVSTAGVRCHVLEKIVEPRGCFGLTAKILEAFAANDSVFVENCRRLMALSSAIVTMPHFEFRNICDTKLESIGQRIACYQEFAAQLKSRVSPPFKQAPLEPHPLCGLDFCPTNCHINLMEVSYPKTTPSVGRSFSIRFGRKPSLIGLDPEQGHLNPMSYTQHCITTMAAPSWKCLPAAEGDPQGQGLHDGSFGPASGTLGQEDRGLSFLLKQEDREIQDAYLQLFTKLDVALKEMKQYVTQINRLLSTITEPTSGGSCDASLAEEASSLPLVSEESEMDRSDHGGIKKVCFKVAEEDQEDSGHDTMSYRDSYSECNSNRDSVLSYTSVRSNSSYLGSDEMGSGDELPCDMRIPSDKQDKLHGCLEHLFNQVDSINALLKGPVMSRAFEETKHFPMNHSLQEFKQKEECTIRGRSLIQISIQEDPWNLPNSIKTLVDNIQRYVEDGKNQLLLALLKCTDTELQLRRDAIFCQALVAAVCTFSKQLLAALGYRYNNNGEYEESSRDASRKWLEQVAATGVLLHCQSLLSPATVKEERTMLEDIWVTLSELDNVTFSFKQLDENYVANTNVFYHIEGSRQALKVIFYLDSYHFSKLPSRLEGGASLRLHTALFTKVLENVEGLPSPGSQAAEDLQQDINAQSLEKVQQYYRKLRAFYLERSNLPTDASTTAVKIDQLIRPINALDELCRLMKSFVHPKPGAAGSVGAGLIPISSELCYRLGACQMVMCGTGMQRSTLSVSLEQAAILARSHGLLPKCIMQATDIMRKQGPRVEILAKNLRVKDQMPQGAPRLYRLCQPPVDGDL
T1 sequence (Q70Z35 whole entry): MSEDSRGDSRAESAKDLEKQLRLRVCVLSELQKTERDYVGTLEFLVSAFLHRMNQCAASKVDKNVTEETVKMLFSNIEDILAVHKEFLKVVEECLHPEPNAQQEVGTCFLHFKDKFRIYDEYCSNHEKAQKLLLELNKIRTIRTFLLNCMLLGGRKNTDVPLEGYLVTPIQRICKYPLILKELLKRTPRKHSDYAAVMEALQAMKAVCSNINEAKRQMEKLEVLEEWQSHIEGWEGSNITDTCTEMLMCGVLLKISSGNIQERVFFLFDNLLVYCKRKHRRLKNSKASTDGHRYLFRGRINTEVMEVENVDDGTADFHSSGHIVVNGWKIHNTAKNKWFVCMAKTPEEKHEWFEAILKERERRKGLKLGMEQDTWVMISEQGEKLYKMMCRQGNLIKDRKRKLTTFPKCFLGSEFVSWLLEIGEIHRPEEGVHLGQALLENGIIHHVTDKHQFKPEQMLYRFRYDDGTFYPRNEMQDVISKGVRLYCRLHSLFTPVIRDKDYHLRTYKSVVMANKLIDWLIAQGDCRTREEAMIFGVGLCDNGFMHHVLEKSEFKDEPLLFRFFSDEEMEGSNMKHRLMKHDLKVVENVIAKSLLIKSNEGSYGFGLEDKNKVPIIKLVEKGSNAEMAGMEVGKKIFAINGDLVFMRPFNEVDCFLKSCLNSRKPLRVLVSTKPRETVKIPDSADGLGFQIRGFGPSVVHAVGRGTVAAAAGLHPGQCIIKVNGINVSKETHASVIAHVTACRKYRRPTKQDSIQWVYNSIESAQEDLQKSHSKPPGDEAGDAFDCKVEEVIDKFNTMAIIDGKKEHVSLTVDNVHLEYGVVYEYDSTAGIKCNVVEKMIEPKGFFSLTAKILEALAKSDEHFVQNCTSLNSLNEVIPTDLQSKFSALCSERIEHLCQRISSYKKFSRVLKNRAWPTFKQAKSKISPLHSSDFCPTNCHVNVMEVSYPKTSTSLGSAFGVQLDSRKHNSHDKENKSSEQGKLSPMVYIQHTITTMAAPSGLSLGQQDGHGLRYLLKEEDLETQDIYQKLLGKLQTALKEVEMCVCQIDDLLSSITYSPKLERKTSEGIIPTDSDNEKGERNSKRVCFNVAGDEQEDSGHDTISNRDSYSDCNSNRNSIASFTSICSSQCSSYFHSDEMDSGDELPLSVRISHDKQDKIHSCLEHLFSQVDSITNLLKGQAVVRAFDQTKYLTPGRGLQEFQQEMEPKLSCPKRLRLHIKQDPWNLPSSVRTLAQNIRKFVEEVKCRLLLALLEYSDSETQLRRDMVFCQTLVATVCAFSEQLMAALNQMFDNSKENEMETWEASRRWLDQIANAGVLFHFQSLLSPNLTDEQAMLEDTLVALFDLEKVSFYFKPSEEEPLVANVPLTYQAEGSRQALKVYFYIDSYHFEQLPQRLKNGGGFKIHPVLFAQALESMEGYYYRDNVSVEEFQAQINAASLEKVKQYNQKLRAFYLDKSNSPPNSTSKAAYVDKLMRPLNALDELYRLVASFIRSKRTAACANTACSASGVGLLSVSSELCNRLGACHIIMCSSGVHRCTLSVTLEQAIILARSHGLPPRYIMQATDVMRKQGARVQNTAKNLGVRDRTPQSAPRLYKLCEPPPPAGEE
T4 sequence (Q8TCU6 whole entry E56A/N238A, the tested form may be a part): as the sequence (Q8TCU6 whole entry) above, with E56A, N238A counted along it
T2 sequence (Q70Z35 whole entry E30A/N212A, the tested form may be a part): as the sequence (Q70Z35 whole entry) above, with E30A, N212A counted along it

B1: GST-Grk2 (enzyme, human, UniProt P25098 1-689, looked up)
chain: MADLEAVLADVSYLMAMEKSKATPAARASKKILLPEPSIRSVMQKYLEDRGEVTFEKIFSQKLGYLLFRDFCLNHLEEARPLVEFYEEIKKYEKLETEEERVARSREIFDSYIMKELLACSHPFSKSATEHVQGHLGKKQVPPDLFQPYIEEICQNLRGDVFQKFIESDKFTRFCQWKNVELNIHLTMNDFSVHRIIGRGGFGEVYGCRKADTGKMYAMKCLDKKRIKMKQGETLALNERIMLSLVSTGDCPFIVCMSYAFHTPDKLSFILDLMNGGDLHYHLSQHGVFSEADMRFYAAEIILGLEHMHNRFVVYRDLKPANILLDEHGHVRISDLGLACDFSKKKPHASVGTHGYMAPEVLQKGVAYDSSADWFSLGCMLFKLLRGHSPFRQHKTKDKHEIDRMTLTMAVELPDSFSPELRSLLEGLLQRDVNRRLGCLGRGAQEVKESPFFRSLDWQMVFLQKYPPPLIPPRGEVNAADAFDIGSFDEEDTKGIKLLDSDQELYRNFPLTISERWQQEVAETVFDTINAETDRLEARKKAKNKQLGHEEDYALGKDCIMHGYMSKMGNPFLTQWQRRYFYLFPNRLEWRGEGEAPQSLLTMEEIQSVEETQIKERKCLLLKIRGGKQFILQCDSDPELVQWKKELRDAYREAQQLVQRVPKMKNKPRSPVVELSKVPLVQRGSANGL
notes: G protein-coupled receptor kinase 2 (Grk2), human, recombinant; also called recombinant human GST-Grk2; source: bought: Abcam (ab125620), Sf9 cell-derived recombinant
binds: all assays above
